B1: Table S3 B row 1694 (dsDNA)
DNA 1: CTGCAAACCACAAAACACCTGACTGCTACGTAAGAT
DNA 2: ATCTTACGTAGCAGTCAGGTGTTTTGTGGTTTGCAG
B2: Table S3 B row 2945 (dsDNA)
DNA 1: GCTCCTCACTGCGGTCACAGCCACATGCTGCAGAGC
DNA 2: GCTCTGCAGCATGTGGCTGTGACCGCAGTGAGGAGC
B3: Table S3 B row 71 (dsDNA)
DNA 1: CCTTTGTTGTGGTTTTTGCAGAAAGAGAAGGGTTAG
DNA 2: CTAACCCTTCTCTTTCTGCAAAAACCACAACAAAGG
B4: Table S3 B row 3040 (dsDNA)
DNA 1: GCCTTTTGTGGTTTGTACCACTGCCTGCCTTTTCTG
DNA 2: CAGAAAAGGCAGGCAGTGGTACAAACCACAAAAGGC
B5: Table S3 B row 2123 (dsDNA)
DNA 1: CTCTGAACGTCCTCTCTTTTAACCACAACTTACTAC
DNA 2: GTAGTAAGTTGTGGTTAAAAGAGAGGACGTTCAGAG
B6: Table S3 B row 1277 (dsDNA)
DNA 1: GGGGTGCGGTTTAGGGCGGGTTTTTTGCGCCTTGGA
DNA 2: TCCAAGGCGCAAAAAACCCGCCCTAAACCGCACCCC
B7: Table S3 B row 1633 (dsDNA)
DNA 1: CCTTTACGTCCTTTTACTTCTAACCACAGAATTAAA
DNA 2: TTTAATTCTGTGGTTAGAAGTAAAAGGACGTAAAGG
B8: Table S3 B row 518 (dsDNA)
DNA 1: GACCCACTGCGGTCATGCTGCTCCCTGCCCAACCCG
DNA 2: CGGGTTGGGCAGGGAGCAGCATGACCGCAGTGGGTC
B9: Table S3 B row 2012 (dsDNA)
DNA 1: TTTTTGTGTTTTTGTGGTTTCTTCCGATCTTAGTCA
DNA 2: TGACTAAGATCGGAAGAAACCACAAAAACACAAAAA
B10: Table S3 B row 586 (dsDNA)
DNA 1: CTTGTCCCTTGTGGTTTTTTGCATTTGCTGTTCCCT
DNA 2: AGGGAACAGCAAATGCAAAAAACCACAAGGGACAAG
B11: Table S3 B row 3404 (dsDNA)
DNA 1: TTGGTCTTGTGGTTTTGCAAGGCAGGGGTGATATAT
DNA 2: ATATATCACCCCTGCCTTGCAAAACCACAAGACCAA
B12: Table S3 B row 2269 (dsDNA)
DNA 1: ACTGTTATTGTGGTTTTTGGGGACTGCCTCTTTGTC
DNA 2: GACAAAGAGGCAGTCCCCAAAAACCACAATAACAGT
B13: Table S3 B row 226 (dsDNA)
DNA 1: TTTCTTTCTGTGGTTTATCCTTATTTGCTGGCTTCG
DNA 2: CGAAGCCAGCAAATAAGGATAAACCACAGAAAGAAA
B14: Table S3 B row 730 (dsDNA)
DNA 1: GTGCCTGACCACAAACCAACATTGCCTGTCTCAATT
DNA 2: AATTGAGACAGGCAATGTTGGTTTGTGGTCAGGCAC
B15: Table S3 B row 2175 (dsDNA)
DNA 1: AAATCAAAACCACAATCAGATACCACTTGCTGCCCA
DNA 2: TGGGCAGCAAGTGGTATCTGATTGTGGTTTTGATTT
B16: Table S3 B row 2418 (dsDNA)
DNA 1: TTCTCTGCACTGCGGTTTACTCAGAAAGAAGACAAC
DNA 2: GTTGTCTTCTTTCTGAGTAAACCGCAGTGCAGAGAA
B17: Table S3 B row 320 (dsDNA)
DNA 1: AGAAACCACAAAACCCCATTTGAAATTCAGCCGTGC
DNA 2: GCACGGCTGAATTTCAAATGGGGTTTTGTGGTTTCT
B18: Table S3 B row 2108 (dsDNA)
DNA 1: GCTCGTTTGTGGTTACTGACACCCGGCCTTCATTTC
DNA 2: GAAATGAAGGCCGGGTGTCAGTAACCACAAACGAGC
B19: Table S3 B row 1104 (dsDNA)
DNA 1: TTTCTGTGGTTTGGTTTCTATAGAGACACTTGCTGT
DNA 2: ACAGCAAGTGTCTCTATAGAAACCAAACCACAGAAA
B20: Table S3 B row 1695 (dsDNA)
DNA 1: GCACAAAACCGCACAAACAGCCTGAAGCACAGCCCC
DNA 2: GGGGCTGTGCTTCAGGCTGTTTGTGCGGTTTTGTGC
B21: Table S3 B row 2387 (dsDNA)
DNA 1: CATTTCTGTTGCGGTTGGCAGCGTCTCCATCCACGG
DNA 2: CCGTGGATGGAGACGCTGCCAACCGCAACAGAAATG
B22: Table S3 B row 158 (dsDNA)
DNA 1: GTCTCAACCGCAAGGAGGTGTTACGTCCTCTTTTAC
DNA 2: GTAAAAGAGGACGTAACACCTCCTTGCGGTTGAGAC
B23: Table S3 B row 531 (dsDNA)
DNA 1: ATAGCTTGTGGTTTATGGGTCAGCAAGTTGAGGGTG
DNA 2: CACCCTCAACTTGCTGACCCATAAACCACAAGCTAT
B24: Table S3 B row 1866 (dsDNA)
DNA 1: TCTGCGGTCAGCTGACTGTGCCAGAGTGCCGCGGGG
DNA 2: CCCCGCGGCACTCTGGCACAGTCAGCTGACCGCAGA
B25: Table S3 B row 1550 (dsDNA)
DNA 1: TGACCTTTGTGGTTTGGTCAGCAAGTGGGGTACTGG
DNA 2: CCAGTACCCCACTTGCTGACCAAACCACAAAGGTCA
B26: Table S3 B row 3051 (dsDNA)
DNA 1: GGCTTGTGGTTTGGTGATTGTACGTCCTTATTGATA
DNA 2: TATCAATAAGGACGTACAATCACCAAACCACAAGCC
B27: Table S3 B row 2442 (dsDNA)
DNA 1: GTGAAAAAGTCTGTGGTTTTGTTTCTTGAACACCTG
DNA 2: CAGGTGTTCAAGAAACAAAACCACAGACTTTTTCAC
B28: Table S3 B row 2332 (dsDNA)
DNA 1: TGTCAAAGTTTGTGGTGAGTGGCTTGCTGGAGACCC
DNA 2: GGGTCTCCAGCAAGCCACTCACCACAAACTTTGACA
B29: Table S3 B row 48 (dsDNA)
DNA 1: CCTGCTGCGGTCAGCCCTGTCTCTTTCTGTTTCTGC
DNA 2: GCAGAAACAGAAAGAGACAGGGCTGACCGCAGCAGG
B30: Table S3 B row 871 (dsDNA)
DNA 1: ATGACCGATCAACCGCAAAGGCCGGGAATGCGTCAG
DNA 2: CTGACGCATTCCCGGCCTTTGCGGTTGATCGGTCAT
B31: Table S3 B row 1255 (dsDNA)
DNA 1: GTCCAACCGCAGCCAGGCAAGCACACCCTGCCCCAC
DNA 2: GTGGGGCAGGGTGTGCTTGCCTGGCTGCGGTTGGAC
B32: Table S3 B row 2560 (dsDNA)
DNA 1: TGAGGTTGTGGTTAGGCAGGACGAAGCCGTTTGTAG
DNA 2: CTACAAACGGCTTCGTCCTGCCTAACCACAACCTCA
B33: Table S3 B row 741 (dsDNA)
DNA 1: CTTAAAACCACAACACAATAACACCAGAGGACATGA
DNA 2: TCATGTCCTCTGGTGTTATTGTGTTGTGGTTTTAAG
B34: Table S3 B row 378 (dsDNA)
DNA 1: GCCTGCGGTTTGGGTGCTGTGACCGTACGGGGGCGG
DNA 2: CCGCCCCCGTACGGTCACAGCACCCAAACCGCAGGC
B35: Table S3 B row 2138 (dsDNA)
DNA 1: TGTGAAACCGCAGGGGTTCAGGGAGGCAGTGTAAGC
DNA 2: GCTTACACTGCCTCCCTGAACCCCTGCGGTTTCACA
B36: Table S3 B row 1223 (dsDNA)
DNA 1: ACTGCTCAAACCACAAACGATAGCAGCAAAGGCCTG
DNA 2: CAGGCCTTTGCTGCTATCGTTTGTGGTTTGAGCAGT
B37: Table S3 B row 2601 (dsDNA)
DNA 1: CTGCTTGTGGTTTTGGTCTGCAGCAAGCTGGGCTGC
DNA 2: GCAGCCCAGCTTGCTGCAGACCAAAACCACAAGCAG
B38: Table S3 B row 2134 (dsDNA)
DNA 1: CACCTTGTGGTTTCTCTGAGTGTCACACCTCCCCAG
DNA 2: CTGGGGAGGTGTGACACTCAGAGAAACCACAAGGTG
B39: Table S3 B row 2093 (dsDNA)
DNA 1: GTTAACCGCACTGCCGCTGGCTGGGTGTCCGCGGCA
DNA 2: TGCCGCGGACACCCAGCCAGCGGCAGTGCGGTTAAC
B40: Table S3 B row 2477 (dsDNA)
DNA 1: GGTGCGGTTAAGGCGAGGCTCCTTCTTTACTGTGAC
DNA 2: GTCACAGTAAAGAAGGAGCCTCGCCTTAACCGCACC
B41: Table S3 B row 1212 (dsDNA)
DNA 1: GCTTTTCTGTGGTTTTTCTCACACGGGAATTGAGAG
DNA 2: CTCTCAATTCCCGTGTGAGAAAAACCACAGAAAAGC
B42: Table S3 B row 1736 (dsDNA)
DNA 1: CTCCTGTGGTTTCTAAACTGTCAGCATGTTGGCTTG
DNA 2: CAAGCCAACATGCTGACAGTTTAGAAACCACAGGAG

In this series the target is RUNX1 (Homo sapiens, UniProt Q01196). Briefly: gcPBM; 2 nM RUNX1. The following applies: tags: N-terminal GST (pDEST15), kept (PMC6008103); label: surface-attached array probe.
RUNX1, sequence (Q01196 whole entry): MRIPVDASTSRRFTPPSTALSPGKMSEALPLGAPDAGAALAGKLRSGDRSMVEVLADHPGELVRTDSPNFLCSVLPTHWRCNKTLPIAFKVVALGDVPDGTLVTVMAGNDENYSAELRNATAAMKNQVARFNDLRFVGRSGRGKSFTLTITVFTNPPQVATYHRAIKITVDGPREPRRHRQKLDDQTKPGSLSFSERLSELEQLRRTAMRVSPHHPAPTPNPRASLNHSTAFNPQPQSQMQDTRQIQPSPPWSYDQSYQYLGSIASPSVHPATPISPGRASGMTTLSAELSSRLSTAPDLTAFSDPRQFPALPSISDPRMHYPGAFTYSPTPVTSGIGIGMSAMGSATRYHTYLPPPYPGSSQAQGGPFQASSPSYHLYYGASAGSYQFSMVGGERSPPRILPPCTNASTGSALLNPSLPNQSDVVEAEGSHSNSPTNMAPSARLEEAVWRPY
Turning to B1, the binding signal is 9300 PBM fluorescence, median of replicate spots.
Next, B2: 6290 PBM fluorescence, median of replicate spots; B3: 10300 PBM fluorescence, median of replicate spots; B4: 17300 PBM fluorescence, median of replicate spots.
The value for B5 was 10800 PBM fluorescence, median of replicate spots.
The value for B6 was 12400 PBM fluorescence, median of replicate spots; that for B7 was 6510 PBM fluorescence, median of replicate spots; that for B8 was 6470 PBM fluorescence, median of replicate spots.
As for B9, the binding signal was 9430 PBM fluorescence, median of replicate spots.
Next, B10: 7790 PBM fluorescence, median of replicate spots.
In the case of B11, the binding signal was 8240 PBM fluorescence, median of replicate spots.
Next, B12: 12500 PBM fluorescence, median of replicate spots; B13: 12500 PBM fluorescence, median of replicate spots.
Regarding B14, the binding signal was 6950 PBM fluorescence, median of replicate spots.
The value for B15 was 6180 PBM fluorescence, median of replicate spots; that for B16 was 10900 PBM fluorescence, median of replicate spots.
As to B17, the binding signal was 15200 PBM fluorescence, median of replicate spots.
Next, B18: 8520 PBM fluorescence, median of replicate spots; B19: 8510 PBM fluorescence, median of replicate spots.
In the case of B20, the binding signal is 16300 PBM fluorescence, median of replicate spots.
Consider B21, for which the binding signal is 12200 PBM fluorescence, median of replicate spots.
With B22, the binding signal was 12800 PBM fluorescence, median of replicate spots.
The value for B23 was 13900 PBM fluorescence, median of replicate spots; that for B24 was 16100 PBM fluorescence, median of replicate spots; that for B25 was 9070 PBM fluorescence, median of replicate spots.
For B26, the binding signal is 13000 PBM fluorescence, median of replicate spots.
Consider B27, for which the binding signal is 9320 PBM fluorescence, median of replicate spots.
In the case of B28, the binding signal is 13400 PBM fluorescence, median of replicate spots.
The value for B29 was 16100 PBM fluorescence, median of replicate spots; that for B30 was 7280 PBM fluorescence, median of replicate spots.
The value for B31 was 8530 PBM fluorescence, median of replicate spots; that for B32 was 7390 PBM fluorescence, median of replicate spots; that for B33 was 14300 PBM fluorescence, median of replicate spots.
Take B34: the binding signal is 10500 PBM fluorescence, median of replicate spots.
On to B35, for which the binding signal was 11000 PBM fluorescence, median of replicate spots.
The value for B36 was 6810 PBM fluorescence, median of replicate spots; that for B37 was 14600 PBM fluorescence, median of replicate spots; that for B38 was 6600 PBM fluorescence, median of replicate spots.
Next, B39: 6840 PBM fluorescence, median of replicate spots; B40: 6190 PBM fluorescence, median of replicate spots; B41: 8950 PBM fluorescence, median of replicate spots.
On to B42, for which the binding signal is 6800 PBM fluorescence, median of replicate spots.

These data come from article PMC10681739, “High-throughput data and modeling reveal insights into the mechanisms of cooperative DNA-binding by transcription factor proteins”.
